According to patent publication US20230235004A1 (published 2023):
Blank lines part the entries; values can stand above or below the binder they belong to.

Columns and labels:
[1] = target: T1, mouse MAdCAM expressed on cells (mouse, UniProt Q61826 22-405); test: cell binding
T1 construct: whole, on cells
T1 sequence (looked up): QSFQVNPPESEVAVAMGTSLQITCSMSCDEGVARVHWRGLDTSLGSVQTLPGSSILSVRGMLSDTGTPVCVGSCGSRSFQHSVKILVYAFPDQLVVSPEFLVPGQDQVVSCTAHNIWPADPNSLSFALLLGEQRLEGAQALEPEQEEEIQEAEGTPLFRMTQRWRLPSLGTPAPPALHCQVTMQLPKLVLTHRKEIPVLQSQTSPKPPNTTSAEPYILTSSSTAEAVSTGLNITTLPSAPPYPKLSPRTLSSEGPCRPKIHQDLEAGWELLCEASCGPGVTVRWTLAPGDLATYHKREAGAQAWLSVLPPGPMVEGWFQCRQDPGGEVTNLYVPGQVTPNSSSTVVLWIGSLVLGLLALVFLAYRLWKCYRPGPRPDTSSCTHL

[2] = target: T2, human MAdCAM expressed on cells (human, UniProt Q13477 19-382); test: cell binding
T2 construct: whole, on cells
T2 sequence (looked up): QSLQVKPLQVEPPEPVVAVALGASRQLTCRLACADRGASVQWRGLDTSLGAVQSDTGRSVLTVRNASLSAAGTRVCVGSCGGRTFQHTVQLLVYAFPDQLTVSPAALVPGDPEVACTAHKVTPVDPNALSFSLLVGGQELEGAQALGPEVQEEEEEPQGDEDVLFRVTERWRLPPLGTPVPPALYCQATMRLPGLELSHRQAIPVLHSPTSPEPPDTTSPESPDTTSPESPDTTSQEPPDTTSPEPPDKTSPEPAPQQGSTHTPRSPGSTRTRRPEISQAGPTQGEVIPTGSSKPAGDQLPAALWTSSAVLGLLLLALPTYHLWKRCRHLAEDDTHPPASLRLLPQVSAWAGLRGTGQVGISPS

human MAdCAM protein = target: T3, human MAdCAM protein (human, UniProt Q13477 19-317, limits assumed); test: Octet
T3 construct: also called soluble monomeric human MAdCAM; recombinant human MAdCAM
T3 sequence (looked up): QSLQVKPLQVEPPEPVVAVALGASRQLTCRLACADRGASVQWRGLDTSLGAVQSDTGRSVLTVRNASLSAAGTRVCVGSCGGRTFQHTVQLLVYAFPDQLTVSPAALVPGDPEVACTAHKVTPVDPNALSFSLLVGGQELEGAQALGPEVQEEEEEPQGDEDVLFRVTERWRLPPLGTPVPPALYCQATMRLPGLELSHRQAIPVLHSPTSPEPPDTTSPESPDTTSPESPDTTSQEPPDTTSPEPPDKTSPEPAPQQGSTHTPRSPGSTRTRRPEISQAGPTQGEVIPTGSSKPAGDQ

[3] = target: T4, recombinant mouse MAdCAM-1 (mouse, UniProt Q61826 22-364, limits assumed); test: Octet
T4 construct: also called mMAdCAM-1
T4 sequence (looked up): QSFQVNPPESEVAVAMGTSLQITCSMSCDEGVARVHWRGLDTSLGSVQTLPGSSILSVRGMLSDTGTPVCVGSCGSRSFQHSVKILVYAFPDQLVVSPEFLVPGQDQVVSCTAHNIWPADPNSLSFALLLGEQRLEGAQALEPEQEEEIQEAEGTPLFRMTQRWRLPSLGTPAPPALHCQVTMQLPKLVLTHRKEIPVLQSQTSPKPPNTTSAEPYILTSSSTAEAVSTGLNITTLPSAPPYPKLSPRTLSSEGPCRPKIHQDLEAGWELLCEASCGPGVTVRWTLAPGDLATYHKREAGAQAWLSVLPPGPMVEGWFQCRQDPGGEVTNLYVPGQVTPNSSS

- binding result [1]: no binding
- binding result [2]: binds
- binding result (human MAdCAM protein): binds
- binding result [3]: no binding
B1: MAdCAM antibody Table 1 clone 6 (scFv)
scFv: EVQLLESGGGLVQPGGSLRLSCAASGFTFNNYAFHWVRQAPGKGLEWVSRINSYGTSTTYADSVKGRFTISRDNSKNTLYLQMNSLRAEDTAVYYCAREGPVAGYWYFDLWGQGTLVTVSSGGGGSGGGGSGGGGSGGGGSDIQMTQSPSSLSASVGDRVTITCRASQIIGTNLAWYQQKPGKAPKLLIYGASSLQSGVPSRFSGSGSGTDFTLTISSLQPEDFATYYCQQSYRLPFTFGQGTKVEIK

- binding result [1]: binds
- binding result [2]: binds
- binding result (human MAdCAM protein): binds
- binding result [3]: binds
B2: MAdCAM antibody Table 1 clone 5 (scFv)
scFv: EVQLLESGGGLVQPGGSLRLSCAASGFTFSSYWMHWVRQAPGKGLEWVSSISPGGSNIDYADSVKGRFTISRDNSKNTLYLQMNSLRAEDTAVYYCAREVQLSHYDYWGQGTLVTVSSGGGGSGGGGSGGGGSGGGGSDIQMTQSPSSLSASVGDRVTITCRASQGISNSLAWYQQKPGKAPKLLIYGASSLQSGVPSRFSGSGSGTDFTLTISSLQPEDFATYYCQQANSFPFTFGQGTKVEIK
